Read-outs that look alike come from different tables or passages of the source.
How the values were obtained:
[1] = molecular target: T1, HiLyte488 labelled Aβ1-42 protofibrils (UniProt P05067 672-713, HiLyte488 fluorophore on part of the peptides (labelled and unlabelled Aβ1-42 monomers mixed 1:5)); experiment: cell-based or functional assay
[2] = molecular target: T1, HiLyte488 labelled Aβ1-42 protofibrils; experiment: cell-based or functional assay; remark: listed apart in the source
[3] = molecular target: T1, HiLyte488 labelled Aβ1-42 protofibrils; experiment: cell-based or functional assay; remark: listed apart in the source
[4] = molecular target: T2, Aβ1-42 (rPeptide, A-1167-2) (UniProt P05067 672-713); experiment: direct ELISA, coated Aβ1-42
T2 construct: domain: Aβ1-42; also called Abeta 1-42

[5] = molecular target: T3, pyroglutamate-modified Aβ (Aβp3-42) (AnaSpec, AS-29907-01) (UniProt P05067 674-713, pyroglutamate at Aβ position 3 (the N-terminus)); experiment: direct ELISA, coated Aβp3-42
T3 construct: domain: Aβp3-42; also called Abeta p3-42
Description: (§1) Direct ELISA was used to test each antibody's affinity for Aβ₁₋₄₂ and pyroglutamate-modified Aβ (Aβₚ₃₋₄₂). Plates were coated with 0.5 μM of Aβ₁₋₄₂ (rPeptide, A-1167-2) or Aβₚ₃₋₄₂ (AnaSpec, AS-29907-01) for 2 h at 4° C. Diluents of antibodies (3-fold serial dilutions with concentrations in the range of 0-100 nM) were added to the plate for 1 h at RT. Binding of antibody to immobilized Aβ on each plate was detected by HRP-labeled secondary antibody and TMB substrate, as described in Example 2.

[6] = molecular target: T2, Aβ1-42 (rPeptide, A-1167-2); experiment: direct ELISA, coated Aβ1-42; remark: listed apart in the source
Description: as §1

[7] = molecular target: T2, Aβ1-42 (rPeptide, A-1167-2); experiment: direct ELISA, coated Aβ1-42; remark: listed apart in the source
[8] = molecular target: T2, Aβ1-42 (rPeptide, A-1167-2); experiment: direct ELISA, coated Aβ1-42; remark: listed apart in the source
[9] = molecular target: T3, pyroglutamate-modified Aβ (Aβp3-42) …; experiment: direct ELISA, coated Aβp3-42; remark: listed apart in the source
[10] = molecular target: T3, pyroglutamate-modified Aβ (Aβp3-42) …; experiment: direct ELISA, coated Aβp3-42; remark: listed apart in the source
Description: After 3 washes with 1× Phosphate-Buffered Saline, 0.1% Tween 20 (PBST), each plate was blocked with 1% BSA in PBS for 1 h at room temperature (RT). Diluents of Aβ antibodies (3-fold serial dilutions with concentrations in the range of 0-100 nM) were added to plates. The plate was incubated for 1 h at RT and washed 3 times. The plate was then incubated with HRP conjugated goat anti-mouse IgG (Thermo Fisher Scientific, G-21040; thermofisher.com) 1:5000 diluted in 1% BSA for 1 h at RT and washed 3 times. TMB (3,3′,5,5;-tetramethylbenzidine) Stabilized Chromogen substrate solution (Life Technologies (Thermo Fisher Scientific) SB02) was added to the plate, and the reaction was stopped by adding 1M sulfuric acid. The absorbance at 450 nm was measured in a plate reader.
as §1

[11] = molecular target: T4, biotin-labelled Aβ1-40 monomer (AnaSpec, AS-61483-01) (UniProt P05067 672-711, biotin label, position not stated); experiment: capture ELISA, coated antibody, biotin-Aβ1-40 monomer
T4 construct: domain: Aβ1-40; also called biotin-conjugated Aβ40 monomer; biotin-Aβ monomer
Description: (§2) A 96-well plate was coated with 5 μg/mL of antibodies overnight at RT. The plate was then treated with diluents of biotin-labelled Aβ₁₋₄₀ monomers (AnaSpec, AS-61483-01, 4-fold serial dilutions with concentrations in the range of 0-1000 nM) for 1 h at RT. The binding of biotin-labelled Aβ₁₋₄₀ monomers with immobilized antibody was detected by HRP-conjugated streptavidin and TMB, as described in Example 2.

[12] = molecular target: T4, biotin-labelled Aβ1-40 monomer …; experiment: as above; remark: listed apart in the source
[13] = molecular target: T4, biotin-labelled Aβ1-40 monomer …; experiment: as above; remark: listed apart in the source
Description: The plate was incubated for 1 h at RT and washed 3 times with PBST. The plate was then incubated with HRP-conjugated streptavidin (Thermo Fisher Scientific, SNN2004) at 1:5000 diluted in 1% BSA for 20 min at RT and washed 3 times. TMB Stabilized Chromogen substrate solution (Life Technologies, SB02) was added to the plate, and the reaction was stopped by adding 1M sulfuric acid. The absorbance at 450 nm was measured in a plate reader.
as §2

[14] = molecular target: T5, Aβ1-42 protofibril (UniProt P05067 672-713); experiment: ratio of competitive ELISA IC50s, monomer as reference
T5 construct: domain: Aβ1-42; soluble multimer of Aβ1-42; also called Aβ protofibril; Aβ protofibrils
Source text: The binding was detected by HRP-labeled secondary antibody and TMB substrate, as described in Example 2.

relative ADCP [1]	ADCP (RFU) [2] [RFU]	ADCP (RFU) [3] [RFU]	EC50 [4] [nM]	EC50 [5] [nM]	EC50 [6] [nM]	EC50 [7] [nM]	EC50 [8] [nM]	EC50 [9] [nM]	EC50 [10] [nM]	EC50 [11] [nM]	EC50 [12] [nM]	EC50 [13] [nM]	ratio of IC50 monomer to IC50 protofibril [14] [fold]	Binder
1.36 relative to ADCP response of rfmAb-1	480000	673000	< 0.1	> 50	0.062	0.062	0.062	57.6	57.6	67	67	67		18P01A (mIgG1) (antibody, V domains shown, chimeric: fully human F(ab')2 (human VH, VL, CH1, CL), mouse IgG1 CH2-CH3; also called Chimeric mouse 18P01A (mlgG1); Original 18P01A (mlgG1)) VH: EVQLVESGGGLVQPGGSLKLSCAVSGFTFSGSAMHWVRQASGKGLEWVGRIRSKANSYATAYAASVKGRFTISRDDSKNTAFLQMNSLKTEDTAVYYCTSHAPNFDAFDIWGQGTMVTVSS VL: QSVLTQPPSVSAAPGQKVTISCSGSSSNIGNHYVSWYQQLPGTAPKFFIYDNSKRPSGIPDRFSGSKSGTSATLGITGLQTGDEADYYCGTWDSSLSTYVFGTGTKVTVL
1.05 relative to ADCP response of rfmAb-1	334000		< 0.1	> 50	0.05	0.05		336		2.57	2.57		> 300	20O07A (mIgG1) (antibody, V domains shown, chimeric: fully human F(ab')2, mouse IgG1 CH2-CH3; also called Chimeric mouse 20O07A (mlgG1)) VH: EVQLVESGGGLVQPGGSLKLSCAVSGFTFSGSAIHWVRQASGKGLEWVGRIRSKVNSYATVYAASVKGRFTISRDDSKNTAFLQMNSLKTEDTAVYYCTSHAPIFDAFDIWGQGTMVTVSS VL: QSVLTQPPSVSAAPGQKVTISCSGSSSNIGNHYVSWYQQLPGTAPKFLIYDNSKRPSGIPDRFSGSKSGTSATLGITGLQTGDEADYYCGTWDSSLSTYFFGTGTKVTVL
0.79 relative to ADCP response of rfmAb-1	284000	328000	< 0.1	> 50	0.045	0.045	0.045	203	203	35.2	35.2	35.2		17P04A (mIgG1) (antibody, V domains shown, chimeric: fully human F(ab')2, mouse IgG1 CH2-CH3; also called 17P64A; 17P4A) VH: EVQLVESGGGLVKPGGSLRLSCAASGFTLSSFSMNWVRQAPGKGLEWVSSISSRRTYIYYADSAKGRFTFSRDNAKNSLYLQMNSLRAEDSAVYYCARGGYIGSPNAYDIWGQGTMVTVSS VL: QTVVTQEPSLTVSPGGTVTLTCASSTGAVTSDYYPNWFQQKPGQAPRALIYSASTKHSWTPARFSGSLLGGKAALTLSGVQPEDEADYYCLLYYGGAWVFGGGTKLTVL

— patent US20240301046A1 (MABWELL THERAPEUTICS, published 2024)
